This is an account of results in patent US20090297520A1.

Holding throughout (assay): cell-based or functional assay
Assay [1] deals with human Kv1.3 (human) (UniProt P22001).
The target of the next assay is human Kv1.1 (human) (UniProt Q09470).
For assay [2], the target named is human Kv1.3 (human) (UniProt P22001). The source holds these as a separate data set.

Where two headings read alike, the source gives them in different places. Ends that are not written are not given here.

human Kv1.3 (human), sequence (P22001 whole entry): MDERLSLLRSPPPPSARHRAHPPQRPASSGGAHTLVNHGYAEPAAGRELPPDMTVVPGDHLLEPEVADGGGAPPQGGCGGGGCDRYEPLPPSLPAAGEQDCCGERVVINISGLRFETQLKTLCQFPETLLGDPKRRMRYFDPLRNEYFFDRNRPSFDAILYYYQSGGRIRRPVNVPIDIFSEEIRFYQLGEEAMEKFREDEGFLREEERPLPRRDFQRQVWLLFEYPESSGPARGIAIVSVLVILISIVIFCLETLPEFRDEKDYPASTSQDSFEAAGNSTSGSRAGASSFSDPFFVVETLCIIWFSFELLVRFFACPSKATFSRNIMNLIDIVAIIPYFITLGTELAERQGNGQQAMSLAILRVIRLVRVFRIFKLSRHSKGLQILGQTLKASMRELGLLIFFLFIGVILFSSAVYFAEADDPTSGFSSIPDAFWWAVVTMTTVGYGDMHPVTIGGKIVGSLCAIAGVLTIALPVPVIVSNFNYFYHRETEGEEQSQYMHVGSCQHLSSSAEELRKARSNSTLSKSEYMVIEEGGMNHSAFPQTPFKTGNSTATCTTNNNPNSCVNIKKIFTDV
human Kv1.1 (human), sequence (Q09470 whole entry): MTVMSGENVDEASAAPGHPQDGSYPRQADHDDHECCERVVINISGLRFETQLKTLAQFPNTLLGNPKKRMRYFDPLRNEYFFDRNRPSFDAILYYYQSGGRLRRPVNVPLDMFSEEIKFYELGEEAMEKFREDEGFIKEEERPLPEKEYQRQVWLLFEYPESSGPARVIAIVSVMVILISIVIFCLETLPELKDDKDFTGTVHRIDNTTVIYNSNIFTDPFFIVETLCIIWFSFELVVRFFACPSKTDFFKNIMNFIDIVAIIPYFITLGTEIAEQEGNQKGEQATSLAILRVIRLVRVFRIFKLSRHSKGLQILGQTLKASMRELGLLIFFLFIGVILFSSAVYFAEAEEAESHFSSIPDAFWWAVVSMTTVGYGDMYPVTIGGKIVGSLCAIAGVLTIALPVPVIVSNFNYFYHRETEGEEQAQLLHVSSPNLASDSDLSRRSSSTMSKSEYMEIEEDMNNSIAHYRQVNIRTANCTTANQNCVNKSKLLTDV

For E. coli-derived Fc-L-OSK1 (Fc fusion), the Kv1.3 IC50 by WCVC (nM), whole cell patch clamp on HEK293/Kv1.3 cells with human Kv1.3 (human) [1] came out at 3.2 nM.

For “PEG-Fc-L10-SHK(2-35), pool 3 (Fc fusion)”, the IC50 Sustained (nM), pool 3 with human Kv1.3 (human) [1] came out at 0.175 nM.

In the assay with human Kv1.3 (human) [1], 20k PEG-OSK1[Ala29, 1Nal34] (peptide) had a WB/IFNg (IC50, nM), human whole blood of 0.081 nM and a WB/IL-2 (IC50, nM), human whole blood of 0.049 nM.

As to PEG-OSK1 (peptide), in the assay with human Kv1.3 (human) [1], the peak IC50, whole cell patch clamp was determined as 1.28 nM.

As to “E. coli-derived Fc-L-ShK[2-35] (Fc fusion)”, in the assay with human Kv1.3 (human) [1], the Kv1.3 IC50 by IWQ (nM), IonWorks planar patch clamp on CHO/Kv1.3 cells worked out at 2.8 nM and the Kv1.3 IC50 by WCVC (nM), whole cell patch clamp on HEK293/Kv1.3 cells worked out at 1.3 nM.

In the case of Fc-L10-OSK1 (Fc fusion), the hKv1.1: IC50 [pM], whole cell patch clamp in the assay with human Kv1.1 (human) amounted to 41600 pM.

Turning to OSK1-K16, D20 (peptide), in the assay with human Kv1.3 (human) [1], the WB/IFNg (IC50, nM), human whole blood is 1.32 nM and the WB/IL-2 (IC50, nM), human whole blood was 1.58 nM.

In the assay with human Kv1.3 (human) [1], 20k PEG-ShK (peptide) returned a WB/IFNg (IC50, nM), human whole blood of 0.065 nM and a WB/IL-2 (IC50, nM), human whole blood of 0.046 nM.

In the assay with human Kv1.3 (human) [1], “Fc-L10-ShK[2-35] (CHO-derived, bivalent dimeric) (Fc fusion)” returned an IC50, block of outward potassium current, whole cell patch clamp of 0.115 nM.

As for “Fc-L5-ShK[2-35] (CHO-derived, bivalent dimeric) (Fc fusion)”, the IC50, block of outward potassium current, whole cell patch clamp with human Kv1.3 (human) [1] was found to be 0.1 nM.

In the assay with human Kv1.3 (human) [1], “E. coli-derived Fc-L-ShK[1-35] (Fc fusion)” came in with a Kv1.3 IC50 by WCVC (nM), whole cell patch clamp on HEK293/Kv1.3 cells of 1.4 nM.

As to PEG-Fc-L10-OSK1, pool 3 (Fc fusion), the IC50 Sustained (nM), pool 3 with human Kv1.3 (human) [1] is 0.256 nM.

Turning to “Fc-L25-ShK[2-35] (CHO-derived, bivalent dimeric) (Fc fusion)”, in the assay with human Kv1.3 (human) [1], the IC50, whole cell patch clamp on HEK293/Kv1.3 cells was found to be 0.15 nM.

Take “E. coli-derived ShK[2-35]-L-Fc (Fc fusion)”: the Kv1.3 IC50 by IWQ (nM), IonWorks planar patch clamp on CHO/Kv1.3 cells with human Kv1.3 (human) [1] came out at 4.9 nM.

As to OSK1 (synthetic Osk1 toxin peptide), the IC50, block of outward potassium current, whole cell patch clamp with human Kv1.3 (human) [1] came out at 0.039 nM.

The molecule PEG-Fc-L10-OSK1, pool 2 (Fc fusion) came in with an IC50 Sustained (nM), pool 2 with human Kv1.3 (human) [1] of 0.332 nM.

In the assay with human Kv1.3 (human) [1], native OSK1 (peptide) had a Kv1.3 (IC50, pM), whole cell patch clamp ePhys of 39 pM and a Kv1.3 Selectivity (=Kv1.1/Kv.3 IC50) of 5 fold. Also, the Kv1.1 (IC50, pM), whole cell patch clamp ePhys in the assay with human Kv1.1 (human) worked out at 202 pM.

Synthetic OSK1 (peptide) had a hKv1.3: IC50 [pM], whole cell patch clamp with human Kv1.3 (human) [1] of 39 pM. Further, in the assay with human Kv1.1 (human), the hKv1.1/hKv1.3 (ratio of IC50s, reference hKv1.3) turned out to be 4 and the hKv1.1: IC50 [pM], whole cell patch clamp came out at 160 pM.

In the case of “E. coli-derived Shk[1-35]-L-Fc (Fc fusion)”, in the assay with human Kv1.3 (human) [1], the Kv1.3 IC50 by IWQ (nM), IonWorks planar patch clamp on CHO/Kv1.3 cells is 2.4 nM.

In the assay with human Kv1.3 (human) [1], GGGGS-Osk1 (peptide) showed a WB/IFNg (IC50, nM), human whole blood of 2.2 nM and a WB/IL-2 (IC50, nM), human whole blood of 1.36 nM.

For “PEG-Fc-L10-SHK(2-35), pool 2 (Fc fusion)”, in the assay with human Kv1.3 (human) [1], the IC50 Sustained (nM), pool 2 came to 0.158 nM.

B1: 20K PEG-ShK[1-35] (peptide)
peptide: RSCIDTIPKSRCTAFQCKHSMKYRLSFCRKTCGTC
modifications: not fully specified (N-terminus); ends and bridges not checked
B1 registered a peak IC50, whole cell patch clamp in the assay with human Kv1.3 (human) [2] of 0.169 nM.

B2: ShK[2-35] (synthetic peptide analog) (peptide)
peptide: SCIDTIPKSRCTAFQCKHSMKYRLSFCRKTCGTC
modifications: not fully specified; ends and bridges not checked
Molecule B2 came in with an IC50, block of outward potassium current, whole cell patch clamp with human Kv1.3 (human) [2] of 0.049 nM.
